Experiments:
[1] = system: Pseudomonas fluorescens HPPD polypeptide (wild-type and mutants); assay: Coupled HPPD activity assay: turnover and residual turnover in crude HPPD polypeptide extracts with and without Cmpd. 1; type: biochemical; conditions: for Residual turnover [%]: 100 μM Cmpd. 1, normalised to turnover without inhibitor; for Turnover: absence of Cmpd. 1; for Turnover / Residual turnover: changes in absorbance (OD) at 320 nm in the coupled assay, 30 min; for Residual turnover: presence of 100 μM Cmpd. 1
[2] = system: soybean plants (transgenic T0 events, wild-type); assay: Greenhouse spray test of T0 soybean events with Cmpd. 1, leaf area damage score; type: in vivo; parameters: key to leaf area damage score, 25th percentile / leaf area damage score, Interquartile range: damage score 0 (no damage) to 100 (complete bleaching); conditions: five days after application of Cmpd. 1 at 300 g AI/ha
Description: Tolerant green shoots were transferred to rooting media or grafted. Rooted plantlets were transferred to the greenhouse after an acclimation period. Plants containing the transgene were then sprayed with HPPD inhibitor herbicides, as for example with mesotrione at a rate of 300-600 g AI/ha, or with Cmpd. 1 (2-chloro-3-(methylsulfanyl)-N-(1-methyl-1H-tetrazol-5-yl)-4-(trifluoromethyl)benzamide) at a rate of 150 g-300 g AI/ha supplemented with ammonium sulfate and methyl ester rapeseed oil. Five to ten days after the application, the symptoms due to the application of the herbicide were evaluated and compared to the symptoms observed on wild-type plants under the same conditions.
For example, T0 soybean plants having a “plant expression cassette”, which includes an HPPD inhibitor tolerant HPPD polypeptide of the present invention, were tested towards the tolerance of Cmpd. 1.
Prior greenhouse trials with the transgenic plants, soybean transformants were routinely analyzed for the expression and presence of the transgenes using the ELISA protein detection method (see detailed description under item D and H). Only plants recovering in the selection media and having a detectable HPPD transgene protein expression were used for the herbicide tolerance analysis. A DeVries Tracker Sprayer was calibrated prior to each spraying. The chemical formulation used for Cmpd. 1 was supplemented with ammonium sulfate and methylated rape seed oil. Spray tests were conducted with a concentration, which equals to 300 grams AI per hectare (300 g AI/ha).
In greenhouse trials, independent T0 soybean events containing an exemplary mutant HPPD polypeptide were sprayed with the HPPD inhibitor herbicide Cmpd. 1 (2-chloro-3-(methylsulfanyl)-N-(1-methyl-1H-tetrazol-5-yl)-4-(trifluoromethyl)benzamide) at the rate of 300 grams AI/ha, supplemented with ammonium sulfate and methyl ester rapeseed oil. Five days after the application, the leaf damaged area due to the HPPD inhibitor herbicide is scored in a scale from 0 (no damage) to 100 (complete bleaching). Under those conditions, the wild-type plants were completely bleached and their damage scores were in the 95-100 range.
Table 5 presents the distribution of the HPPD inhibitor herbicide damage score data as percentile for exemplary mutant HPPD inhibitor herbicide tolerant polypeptides (SEQ ID NOs). The percentiles normalize ranks of the damage score from an individual plant in a population. […] The median is the 50th percentile. Half the values had higher damage scores; half had lower damage scores. The value of the 75th and 90th percentile is the damage score where 75% and 90% of the soybean events had lower damage scores, respectively. The difference between the 75th and 25th percentile is called the interquartile range and a marker to quantify scattering in the population. All constructs had only one single cassette insertion in the soybean genome.

[3] = T0 soybean events expressing the polypeptide, scale 0 to 100

Molecule | Residual turnover [%] [1] | Turnover [1] | Residual turnover [1] | leaf area damage score, 25th percentile ([2]; T0 soybean events expressing the polypeptide, scale 0 (no damage) to 100 (complete bleaching)) | leaf area damage score, 75th percentile [2, 3] | leaf area damage score, 90th percentile [2, 3] | leaf area damage score, Median ([2]; T0 soybean events expressing the polypeptide, scale 0 to 100, 50th percentile) | leaf area damage score, Interquartile range ([2]; difference between 75th and 25th percentile, T0 soybean events)
SEQ ID NO:59 (protein, mutant HPPD polypeptide) MADLYENPMGLMGFEFIEFASPTPGTLEPIFEIMGFTKVATHRSKNVHLYRQGEINLILNNEPNSIASYFAAEHGPSVCGMAFRVKDSQKAYNRALELGAQPIHIDTGPMELNLPAIKGIGGAPLYLIDRFGEGSSIYDIDFVYLEGVERNPVGAGLKVIDHLTHNVYRGRMVYWANFYEKLFNFREARYFDIKGEYTGLTSKAMSAPDGMIRIPLNEESSKGAGQIEEFLMQFNGEGIQHVAFLTDDLVKTWDALKKIGMRFLTAPGDEYYEMLEGRLPDHGEPVDQLQARGILLDGSSVEGDKRLLLQIFSEKLMGPVFFEFIQRKGDDGFGPDSFKVLFEQMERDQVRRGVLTAD | 59% | 0.215 | 0.126 |  |  |  |  | 
SEQ ID NO:60 (protein, mutant HPPD polypeptide) MADLYENPMGLMGFEFIEFASPTPGTLEPIFEIMGFTKVATHRSKNVHLYRQGEINLILNNEPNSIASYFAAEHGPSVCGMAFRVKDSQKAYNRALELGAQPIHIDTGPMELNLPAIKGIGGAPLYLIDRFGEGSSIYDIDFVYLEGVERNPVGAGLKVIDHLTHNVYRGRMVYWANFYEKLFNFREARYFDIKGEYTGLTSKAMSAPDGMIKIPLNEESSKGAGQIEEFLMQFNGEGIQHVAFLTDDLVKTWDALKKIGMRFLTAPGDEYYEMLEGRLPDHGEPVDQLQARGILLDGSSVEGDKRLLLQIFSEKLMGPVFFEFIQRKGDDGFGPDSFKVLFEQMERDQVRRGVLTAD | 56% | 0.252 | 0.14 |  |  |  |  | 
SEQ ID NO: 45 (protein, mutant HPPD polypeptide) MADLYENPMGLMGFEFIEFASPTPGTLEPIFEIMGFTKVATHRSKNVHLYRQGEINLILNNEPNSIASYFAAEHGPSVCGMAFRVKDSQKAYNRALELGAQPIHIDTGPMELNLPAIKGIGGAPLYLIDRFGEGSSIYDIDFVYLEGVERNPVGAGLKVIDHLTHNVYRGRMVYWANFYEKLFNFREARYFDIKGEYTGLTSKAMSAPDGMIKIPLNEESSKGAGQIEEFLMQFNGEGIQHVAFLTDDLVKTWDALKKIGMRFMTAPGDEYYEMLEGRLPDHGEPVDQLQARGILLDGSSVEGDKRLLLQIFSETLMGPVFFEFIQRKGDDGFGPHSFKVLFESMERDQVRRGVLTAD |  |  |  | 10.0 | 25.0 | 35.0 | 15.0 | 15.0
SEQ ID NO:67 (protein, mutant HPPD polypeptide) MADLYENPMGLMGFEFIEFASPTPGTLEPIFEIMGFTKVATHRSKNVHLYRQGEINLILNNEPNSIASYFAAEHGPSVCGMAFRVKDSQKAYNRALELGAQPIHIDTGPMELNLPAIKGIGGAPLYLIDRFGEGSSIYDIDFVYLEGVERNPVGAGLKVIDHLTHNVYRGRMVYWANFYEKLFNFREARYFDIKGEYTGLTSKAMSAPDGMIRIALNEESSKGAGQIEEFLMQFNGEGIQHVAFLTDDLVKTWDALKKIGMRFLTAPGDEYYEMLEGRLPDHGEPVDQLQARGILLDGSSVEGDKRLLLQIFSEQLMGPVFFEFIQRKGDDGFGPDSFKVLFESVERDQVRRGVLTAD | 90% | 0.141 | 0.127 |  |  |  |  | 
SEQ ID NO:69 (protein, mutant HPPD polypeptide) MADLYENPMGLMGFEFIEFASPTPGTLEPIFEIMGFTKVATHRSKNVHLYRQGEINLILNNEPNSIASYFAAEHGPSVCGMAFRVKDSQKAYNRALELGAQPIHIDTGPMELNLPAIKGIGGAPLYLIDRFGEGSSIYDIDFVYLEGVERNPVGAGLKVIDHLTHNVYRGRMVYWANFYEKLFNFREARYFDIKGEYTGLTSKAMSAPDGMIKIPLNEESSKGAGQIEEFLMQFNGEGIQHVAFLTDDLVKTWDALKKIGMRFMTAPGDEYYEMLEGRLPDHGEPVDQLQARGILLDGSSVEGDKRLLLQIFSEQLMGPVFFEFIQRKGDDGFGPDSFKVLFESIERDQVRRGVLTAD | 40% | 0.173 | 0.069 |  |  |  |  | 
SEQ ID NO:65 (protein, mutant HPPD polypeptide) MADLYENPMGLMGFEFIEFASPTPGTLEPIFEIMGFTKVATHRSKNVHLYRQGEINLILNNEPNSIASYFAAEHGPSVCGMAFRVKDSQKAYNRALELGAQPIHIDTGPMELNLPAIKGIGGAPLYLIDRFGEGSSIYDIDFVYLEGVERNPVGAGLKVIDHLTHNVYRGRMVYWANFYEKLFNFREARYFDIKGEYTGLTSKAMSAPDGMIRIPLNEESSKGAGQIEEFLMQFNGEGIQHVAFLTDDLVKTWDALKKIGMRFLTAPGDEYYEMLEGRLPDHGEPVDQLQARGILLDGSSVEGDKRLLLQIFSEKLMGPVFFEFIQRKGDDGFGPDSFKVLFEQIERDQVRRGVLTAD | 60% | 0.204 | 0.123 |  |  |  |  | 
SEQ ID NO:64 (protein, mutant HPPD polypeptide) MADLYENPMGLMGFEFIEFASPTPGTLEPIFEIMGFTKVATHRSKNVHLYRQGEINLILNNEPNSIASYFAAEHGPSVCGMAFRVKDSQKAYNRALELGAQPIHIDTGPMELNLPAIKGIGGAPLYLIDRFGEGSSIYDIDFVYLEGVERNPVGAGLKVIDHLTHNVYRGRMVYWANFYEKLFNFREARYFDIKGEYTGLTSKAMSAPDGMIKIPLNEESSKGAGQIEEFLMQFNGEGIQHVAFLTDDLVKTWDALKKIGMRFLTAPGDEYYEMLEGRLPDHGEPVDQLQARGILLDGSSVEGDKRLLLQIFSEQLMGPVFFEFIQRKGDDGFGPHSFKVLFESMERDQVRRGVLTAD | 61% | 0.295 | 0.181 |  |  |  |  | 
SEQ ID NO:68 (protein, mutant HPPD polypeptide) MADLYENPMGLMGFEFIEFASPTPGTLEPIFEIMGFTKVATHRSKNVHLYRQGEINLILNNEPNSIASYFAAEHGPSVCGMAFRVKDSQKAYNRALELGAQPIHIDTGPMELNLPAIKGIGGAPLYLIDRFGEGSSIYDIDFVYLEGVERNPVGAGLKVIDHLTHNVYRGRMVYWANFYEKLFNFREARYFDIKGEYTGLTSKAMSAPDGMIKIALNEESSKGAGQIEEFLMQFNGEGIQHVAFLTDDLVKTWDALKKIGMRFLTAPGDEYYEMLEGRLPDHGEPVDQLQARGILLDGSSVEGDKRLLLQIFSEQLMGPVFFEFIQRKGDDGFGPDSFKVLFEQIERDQVRRGVLTAD | 74% | 0.182 | 0.134 |  |  |  |  | 
SEQ ID NO:63 (protein, mutant HPPD polypeptide) MADLYENPMGLMGFEFIEFASPTPGTLEPIFEIMGFTKVATHRSKNVHLYRQGEINLILNNEPNSIASYFAAEHGPSVCGMAFRVKDSQKAYNRALELGAQPIHIDTGPMELNLPAIKGIGGAPLYLIDRFGEGSSIYDIDFVYLEGVERNPVGAGLKVIDHLTHNVYRGRMVYWANFYEKLFNFREARYFDIKGEYTGLTSKAMSAPDGMIKIALNEESSKGAGQIEEFLMQFNGEGIQHVAFLTDDLVKTWDALKKIGMRFLTAPGDEYYEMLEGRLPDHGEPVDQLQARGILLDGSSVEGDKRLLLQIFSEKLMGPVFFEFIQRKGDDGFGPHSFKVLFEQMERDQVRRGVLTAD | 67% | 0.209 | 0.139 |  |  |  |  | 
SEQ ID NO:66 (protein, mutant HPPD polypeptide) MADLYENPMGLMGFEFIEFASPTPGTLEPIFEIMGFTKVATHRSKNVHLYRQGEINLILNNEPNSIASYFAAEHGPSVCGMAFRVKDSQKAYNRALELGAQPIHIDTGPMELNLPAIKGIGGAPLYLIDRFGEGSSIYDIDFVYLEGVERNPVGAGLKVIDHLTHNVYRGRMVYWANFYEKLFNFREARYFDIKGEYTGLTSKAMSAPDGMIRIPLNEESSKGAGQIEEFLMQFNGEGIQHVAFLTDDLVKTWDALKKIGMRFLTAPGDEYYEMLEGRLPDHGEPVDQLQARGILLDGSSVEGDKRLLLQIFSEQLMGPVFFEFIQRKGDDGFGPDSFKVLFEQIERDQVRRGVLTAD | 65% | 0.187 | 0.122 |  |  |  |  | 

Source: US11371056B2, “HPPD variants and methods of use” (BASF Agricultural Solutions Seed US LLC, priority 2017, dated 2022)
